How the values were obtained:
[1] = target: C. elegans Vps4^E219Q (as used alone in light scattering and EM) (C. elegans); assay: SEC-MALS
[2] = target: C. elegans Vps32 (full length, wild type) (C. elegans); assay: cryo-EM imaging
[3] = target: C. elegans Vps32^E94K (C. elegans); assay: SEC
[4] = target: the molecule itself; assay: negative staining EM

Q: For “C. elegans Vps4^E219Q (as used alone in light scattering and EM) (enzyme)”, which stoichiometry N [1] is on record?
A: 6

Q: Which stoichiometry N [2] does the source give for “C. elegans Vps32 (full length, wild type) (natural protein)” here?
A: 800

Q: How did the percent of the total protein in oligomers [3] turn out when C. elegans Vps32^E94K (natural protein) was run?
A: < 5%

B1: yeast Snf7^R52E (natural protein)
chain: MWSSLFGWTSSNAKNKESPTKAIVRLREHINLLSKKQSHLRTQITNQENEAEIFLTKGNKVMAKNALKKKKTIEQLLSKVEGTMESMEQQLFSIESANLNLETMRAMQEGAKAMKTIHSGLDIDKVDETMDEIREQVELGDEISDAISRPLITGANEVDEDELDEELDMLAQENANQETSKIVNNNVNAAPISENKVSLPSVPSNKIKQSENSVKDGEEEEDEEDEDEKALRELQAEMGL
Q: Does B1 bind [4]?
A: binds
